Test results as given in the supplement of paper PMC9170038.

System: MS2 coat protein
Test: apparent KD of MS2 coat protein; higher = weaker reporter binding
Conditions: Eterna round: R107
Outline: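 Titrations with SNAP-549-labelled MS2 coat protein ran in twofold steps from 0.7 or 1.5 nM to 3 µM, each step taking 0.8–1.5 h at the start and 10–20 min toward the end. The targets were designed RNA switches transcribed on-chip from Illumina sequencing clusters, held in 100 mM Tris-HCl pH 7.5, 80 mM KCl, 4 mM MgCl2, without or with constant ligand. Apparent KD was taken per design as the median of normalised cluster binding-curve fits.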

[1] = input ligand: theophylline 20 uM
[2] = input ligand: tryptophan 2.4 mM
[3] = input ligand: theophylline 2 mM

| Sequence | apparent KD of MS2 coat protein (input ligand: arginine 13.2 mM) [nM] | apparent KD of MS2 coat protein [1] [nM] | apparent KD of MS2 coat protein [2] [nM] | apparent KD of MS2 coat protein (input ligand: none) [nM] | apparent KD of MS2 coat protein [3] [nM] |
| --- | --- | --- | --- | --- | --- |
| AGCAGUACAACAGAUACCAGACUUUUCAUGCCUUUAAUUACAUGAGGAUCACCCAUGUUUGUCCCUUGGCAGCUGUUGUACUGCA [JR_ExcTheophyB_Sub011] | 29.5 | 62.8 | 39.9 |  |  |
| AGCAUGUUAUCAGAUACCAGACAUCUUUUAAUACAUAUUACAUGAGGAUCACCCAUGUUGGUCCCUUGGCAGCUGAAAUAUUUCA [JR_Nu_SSTheophyB_Sub023] | 124 | 223 | 360 |  |  |
| AGCCCGGGAGCGGCCGCCACUGGAGGCUUUGCGCGACAUGAGGAUCACCCAUGUGUGCCCGGCGUUAGGACCGGGCUCGCGUGGU [#1 Same State - Tryptophan B Attempt #21 (HarryS)] | 27.8 | 32.5 | 46.9 | 33.4 | 55.3 |
| AGCCCGUGAGCGGCCGCCACUGGAGGCUUUGCGCGACAUGAGGAUCACCCAUGUGUGCCCGGCGUUAGGACCGGGUUCACGUGGU [#1 Same State - Tryptophan B Attempt #19 (HarryS)] | 59.4 | 226 | 124 | 304 | 838 |
| AGCCCGUGAGCGGCCGCCACUGGAGGCUUUGCGCGACAUGAGGAUCACCCAUGUGUGCCCGGCGUUAGGACCGGGUUCGCGUGGU [#1 Same State - Tryptophan B Attempt #18 (HarryS)] | 30 | 48.7 | 32.4 | 38.5 | 45.4 |
| AGCCCUGUGCUAGAUACCAGCUACAUGAGGAUCACCCAUGUGCGUCAGAAAUGACUGUGUAGCCCUUGGCAGCUAAAUGCAUGUA [Exclusion - Theophylline B (Freestyle 7)] | 13.8 | 16.5 | 11 |  |  |
| AGCCGCGUUCUUUCUUUCUUUCUAGCGGCACGAGGACCGGUACGGCCGCCACUCGCCCACAUGAGGAUCACCCAUGUAGUGGGUG [The One Ring #2] | 18.5 | 27.7 |  |  | 23.9 |
| AGCCGGAUUACGGCCGCCACUGUAGACGUGACGAAAGUCGCGUCAACAUGAGGAUCACCCAUGUACAGGACCGGGUGGUCCGGCG [Omei Trp B SS A v1] | 15 | 22.2 | 6.02 | 13.7 | 17.8 |
| AGCCGGAUUACGGCCGCCACUGUAGACGUGACGAAAGUCGCGUCAACAUGAGGAUCACCCAUGUACAGGACCGGGUGGUCGGGCG [Omei Tryp B SS A v5] | 74.1 | 247 |  |  | 240 |
| AGCCGUACGUACGGAAACGUACGUACGGCACGAGGACCGGUACGGCCGCCACUCGCCCACAUGAGGAUCACCCAUGUAGUGGGUG [The One Line] | 23.4 | 58.2 | 103 | 43.7 | 53.4 |
| AGCCUCAUACAUGAGGAACACCCAUGUGAUACCAGUCAGGAAACUGACCCUUGGCAGCGCAUGAGGAUCACCCAUGCGCGAGGCA [Omei Theo A Exc A v3] | 20.4 | 78.2 | 47.7 | 63 | 237 |
| AGCGACAUGCAUGAUACCAGCUACAUGAGGAUCACCCAUGUACGUCAGUAAUGACUGUGUAGCCCUUGGCAGCAUAGAGCAUGUA [Exclusion - Theophylline B (Freestyle 14)] | 17.7 | 28 | 18.4 |  |  |
| AGCGACAUGCGUGAUACCAGCUACAUGAGGAUCACCCAUGUACGUAGGAAACUACUGUGUAGCCCUUGGCAGCAUAGUGCAUGUC [Exclusion - Theophylline B (Freestyle 21)] | 14.6 | 20 | 13.5 |  |  |
| AGCGACAUGCGUGAUACCAGCUACAUGAGGAUCACCCAUGUCAGUAGGAAACUACUGUGUAGCCCUUGGCAGCACAGUGCAUGUC [Exclusion - Theophylline B (Freestyle 26)] | 12.3 | 31.9 | 17.7 | 16.4 | 30.2 |
| AGCGCAGGUCCUGAUACCAGAGACAUGAGGAUCACCCAUGUCCGGUGGUCCUGCCACAGGCUCCCUUGGCAGCAGGGCUUGUGCU [Exclusion Theophylline B GF9] | 31.4 | 40.8 | 29.1 | 28.7 | 60.5 |
| AGCGUGCAUCGGAAAACGAUGUACGCAAAUCGAGGACCGGUACGGCCGCCACUCGUCCUCAACAUGAGGAUCACCCAUGUAAUAA [Mat - Exclusion - Trytophan A - D10] | 22 | 24.8 |  |  | 24 |
| AGCUCGCAAUCCUCAGCGUCAAAGACGCGUCGAGGACCGGUACGGCCGCCACUCGACAAGAGGAUCACCCUUGUCUAAGCGAGCA [TrypAX 5 #SwitchBubble #AlternativeMS2 #MS2Late #CuTurnoff] | 78.5 | 355 | 114 |  | 588 |
| AGCUCGCAUCCUCAAGCGUCAAAGACGCGUCGAGGACCGGUACGGCCGCCACUCGACCUGAGGAACACCCAGGUCCUCGCGAGCA [TrypAX 7 #SwitchBubble #AlternativeMS2 #MS2Late #CuTurnoff] | 20.7 | 40.2 | 236 | 26.1 | 34.9 |
| AGCUCGCGAAAGCGAGCAACAUGAUCCGAAGGAGCGGGCGAAAGCCCAGGUAGGUCGCGGACAUGAGGAUCACCCAUGUCUCCUU [MAT - Exclusion Arginine A - Mod of Eli - D13] | 41 | 88.4 | 77 | 70.9 | 94.8 |
| AGGAACAUGAGGAUCACCCAUGUAAGCGAUACCAGUGAUAUGUUGCGCCCUUGGCAGCGCAAGUGUGUGUGAAAGAUGUAAGAUU [Eclusion - Theophylline A / A] | 14.6 | 29.3 | 16.7 |  |  |
| AGGACGGUCGGAAGGAGCGGUACAUGAGGAUCACCCAUGUACUCCUGGGCAUCCGUAGUGUGCCAGGUAGGUCGCCGAUUGCGGG [XArg-B8] | 12.1 | 19.8 | 16.2 | 12.1 | 21.5 |
| AGGACGGUCGGAAGGAGCGGUACAUGAGGAUCACCCAUGUAUUCCUGGGCAUCCGUAGUGUGCCAGGUAGGUCGCCGAUUGCGGG [XArg-B7] | 57.6 | 109 | 64.8 | 32.7 | 103 |
| AGGUACAGCAGGUGAUUCUGGCUGUACCAACGAGGACCGGUACGGCCGCCACUCGAAUAAACAUGAGGAUCACCCAUGUACAAAU [T''-M-T'-T-MS2 - Design 7] | 20.3 | 41.3 |  |  | 31.9 |
| AGUAAUAAUAUAAAUAAUAUUAGGUCAUGGCGAGGACCGGUACGGCCGCCACUCGGUUACAUGAGGAUCACCCAUGUCCCGCUUA [Exclusion - Tryptophan A] | 26.6 | 35 |  |  | 31.2 |
| AGUACACGAACGGAUACCAGCCGGACAUGAGGAUCACCCAUGUCCUACCUCUGUUCGGUUGGCCCUUGGCAGCCGUUCGUGUACA [Omei Theo B SS A v8] | 122 | 590 | 208 |  |  |
| AGUACAUGAGGAUCACCCAUGUAUCGGUACCGAGGACCGGUACGGCCGCCACUCGCAGGACAUGAGGAUCACCCAUGUGCCGCCG [SSTA DOUBLE!!! :-D #9] | 13.9 | 22.6 |  |  | 22.4 |
